According to patent publication US20210277112A1 (BIOND BIOLOGICS, published 2021):
Numbering of substitutions follows the chain as printed. Read-outs that look alike come from different tables or passages of the source. Values belong to the molecule of their own block, whether it stands above or below them.

Tests used:
[1] = molecular target: T1, recombinant ILT2 (human, UniProt Q8NHL6 24-461); test: binding ELISA, hILT2-Fc, negative control
T1 construct: also called LILRB1; LIR1

[2] = molecular target: T2, ILT6 (UniProt Q8N6C8 24-439); test: binding ELISA, column hILT6-His, negative control
[3] = molecular target: T3, LILRA1 (UniProt O75019 17-461, limits assumed); test: binding ELISA, column hLILRA1-His, negative control
[4] = molecular target: T4, PIRB (UniProt P97484 25-642, limits assumed); test: binding ELISA, column PIRB, negative control
T4 sequence (looked up): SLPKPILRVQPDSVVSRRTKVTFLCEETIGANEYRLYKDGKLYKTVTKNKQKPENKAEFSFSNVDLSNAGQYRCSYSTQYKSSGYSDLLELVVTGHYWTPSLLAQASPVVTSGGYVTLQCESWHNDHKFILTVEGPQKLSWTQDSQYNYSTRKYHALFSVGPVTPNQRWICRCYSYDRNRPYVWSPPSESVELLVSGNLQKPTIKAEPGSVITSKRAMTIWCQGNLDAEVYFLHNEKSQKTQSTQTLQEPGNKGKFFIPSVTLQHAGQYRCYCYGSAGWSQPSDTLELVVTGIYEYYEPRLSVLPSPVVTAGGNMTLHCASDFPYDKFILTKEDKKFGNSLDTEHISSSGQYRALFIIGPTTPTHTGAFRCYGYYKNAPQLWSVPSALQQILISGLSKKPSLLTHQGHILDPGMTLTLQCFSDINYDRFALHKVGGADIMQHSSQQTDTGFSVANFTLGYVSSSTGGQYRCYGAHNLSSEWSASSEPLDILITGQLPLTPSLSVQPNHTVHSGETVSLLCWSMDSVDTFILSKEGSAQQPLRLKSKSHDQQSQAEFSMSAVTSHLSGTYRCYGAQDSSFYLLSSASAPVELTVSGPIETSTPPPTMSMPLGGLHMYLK

[5] = molecular target: T1, recombinant ILT2; test: binding ELISA, hILT2-Fc; positive control is GHI/75 by paragraph 227
[6] = molecular target: T5, recombinant human ILT2-Fc conjugated with biotin (human, UniProt Q8NHL6 24-458, limits assumed, conjugated with biotin (sites not given)); test: flow cytometry blocking assay: ILT2-biotin binding to cells expressing HLA-G
T5 construct: It is written here as ILT2 then Fc; also called ILT2-biotin; biotinylated ILT2; not shown: Fc portion of human IgG1
Procedure: (§1) Flow cytometry blocking assay—Recombinant human ILT2 protein fused with the Fc portion of human IgG1 at the N terminal was conjugated with biotin (Innova bioscience). A total of 5×10⁵ A375/HLA-G1 cells were incubated in a volume of 100 μL in the presence of anti-ILT2 clone #1 or isotype matched control mAb and ILT2-Fc conjugated with biotin (10 μg/mL) for 30 minutes at room temperature. After several washing steps, streptavidin-PE was added at a final concentration of 0.2 μg/mL and incubated for 30 min on ice followed by FACS analysis.
(§2) The ability of the generated anti-ILT2 antibodies to block the interaction between HLA-G and ILT2 was tested using four different assays. First, a blocking flow cytometry assay was performed. HLA-G transfected A375 cells were incubated with biotinylated ILT2 in the presence of the antibodies of the invention and a positive control antibody. The commercially available anti-ILT2 antibody GHI/75 (BioLegend, cat #333704) was used as the positive control. The binding of ILT2-biotin to the cells was determined using Streptavidin-PE by flow cytometry analysis (FIG. 8A). The percent of blocking was determined by normalizing to a negative control (ILT2 binding in the presence of control IgG). […] The percentage of blocking was calculated at various concentrations of antibody (FIG. 8C).

[7] = molecular target: T6, ILT2/CD3z chimera on BW5417.3 cells (human; mouse, UniProt P24161 31-164, limits assumed); test: flow cytometry titration on BW cells transfected with human ILT2, y axis FAB
T6 construct: domain: trans-membrane and cytoplasmic residues; Expressed on the surface of the mouse BW T cell line; also called BW-ILT2; BW/ILT2z

[8] = molecular target: T5, recombinant human ILT2-Fc conjugated …; test: flow cytometry blocking assay: ILT2-biotin binding to cells expressing HLA-G; remark: listed apart in the source
Procedure: as §1, §2

[9] = molecular target: T2, ILT6; test: binding ELISA, column hILT6-His
[10] = molecular target: T4, PIRB; test: binding ELISA, column PIRB
[11] = molecular target: T3, LILRA1; test: binding ELISA, column hLILRA1-His
[12] = molecular target: T1, recombinant ILT2; test: competition ELISA on ILT2: biotinylated 15G8 at 1 µg/ml as the labelled competitor, unbiotinylated 15G8 varied
Procedure: This raises the question of the epitope of GHI/75 and other commercial antibodies. Though the epitopes of these antibodies are not published a competition ELISA assay was performed to see if 15G8 and GHI/75 and HP-F1 could bind ILT2 at the same time. Biotinylated 15G8 antibody was used at a constant concentration (1 μg/ml) in an ILT2 binding ELISA. GHI/75 and HP-F1 were added in increasing concentrations and competition was assessed. Regardless of the amount of these two antibodies added, neither one competed with 15G8 for binding to ILT2 (FIG. 19). In contrast, when naked (unbiotinylated) 15G8 was added, the binding decreased in a dose dependent manner as expected. […] This makes 15G8 the first anti-ILT2 antibody ever identified to bind this epitope, to specifically block interaction with B2M and to be able to simultaneously activate/recruit T cells, NK cells and macrophages/dendritic cells against cancer.

T5 sequence (Q8NHL6 24-458 limits assumed): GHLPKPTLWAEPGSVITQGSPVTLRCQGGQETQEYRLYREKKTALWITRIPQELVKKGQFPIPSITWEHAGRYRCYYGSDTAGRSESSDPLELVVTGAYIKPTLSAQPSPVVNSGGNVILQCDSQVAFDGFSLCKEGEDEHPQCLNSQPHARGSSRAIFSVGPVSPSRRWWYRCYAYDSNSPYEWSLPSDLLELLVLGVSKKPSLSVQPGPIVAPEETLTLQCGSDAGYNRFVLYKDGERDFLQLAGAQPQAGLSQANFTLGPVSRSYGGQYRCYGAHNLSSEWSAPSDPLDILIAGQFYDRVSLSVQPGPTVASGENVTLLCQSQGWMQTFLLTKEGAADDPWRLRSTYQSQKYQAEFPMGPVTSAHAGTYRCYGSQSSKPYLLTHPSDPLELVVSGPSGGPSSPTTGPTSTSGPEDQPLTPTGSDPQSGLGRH
T1 sequence (Q8NHL6 24-461 limits assumed): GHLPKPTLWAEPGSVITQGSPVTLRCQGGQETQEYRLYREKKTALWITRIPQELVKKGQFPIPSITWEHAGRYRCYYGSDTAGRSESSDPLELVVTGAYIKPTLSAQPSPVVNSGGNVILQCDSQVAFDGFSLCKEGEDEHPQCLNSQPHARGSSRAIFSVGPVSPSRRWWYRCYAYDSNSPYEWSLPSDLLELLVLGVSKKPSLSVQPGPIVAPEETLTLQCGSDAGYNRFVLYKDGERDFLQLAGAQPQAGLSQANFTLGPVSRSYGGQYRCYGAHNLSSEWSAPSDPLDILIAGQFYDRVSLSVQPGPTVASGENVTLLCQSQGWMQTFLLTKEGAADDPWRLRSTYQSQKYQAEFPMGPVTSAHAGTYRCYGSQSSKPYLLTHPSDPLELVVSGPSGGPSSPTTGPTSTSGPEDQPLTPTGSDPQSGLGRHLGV
T3 sequence (O75019 17-461 limits assumed): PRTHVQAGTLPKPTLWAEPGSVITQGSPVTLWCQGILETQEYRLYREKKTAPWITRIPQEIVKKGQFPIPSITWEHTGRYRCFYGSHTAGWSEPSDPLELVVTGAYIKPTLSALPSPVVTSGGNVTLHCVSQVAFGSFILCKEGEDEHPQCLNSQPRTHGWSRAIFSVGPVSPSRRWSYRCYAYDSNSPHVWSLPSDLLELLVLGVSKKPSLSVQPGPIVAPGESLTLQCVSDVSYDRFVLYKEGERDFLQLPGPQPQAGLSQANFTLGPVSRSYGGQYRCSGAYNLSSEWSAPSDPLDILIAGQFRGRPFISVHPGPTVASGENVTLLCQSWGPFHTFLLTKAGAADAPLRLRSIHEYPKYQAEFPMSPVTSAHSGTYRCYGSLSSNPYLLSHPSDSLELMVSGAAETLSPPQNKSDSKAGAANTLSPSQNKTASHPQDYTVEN
T6 sequence (P24161 other isoform, or with tags, fused parts or gaps mutant limits assumed): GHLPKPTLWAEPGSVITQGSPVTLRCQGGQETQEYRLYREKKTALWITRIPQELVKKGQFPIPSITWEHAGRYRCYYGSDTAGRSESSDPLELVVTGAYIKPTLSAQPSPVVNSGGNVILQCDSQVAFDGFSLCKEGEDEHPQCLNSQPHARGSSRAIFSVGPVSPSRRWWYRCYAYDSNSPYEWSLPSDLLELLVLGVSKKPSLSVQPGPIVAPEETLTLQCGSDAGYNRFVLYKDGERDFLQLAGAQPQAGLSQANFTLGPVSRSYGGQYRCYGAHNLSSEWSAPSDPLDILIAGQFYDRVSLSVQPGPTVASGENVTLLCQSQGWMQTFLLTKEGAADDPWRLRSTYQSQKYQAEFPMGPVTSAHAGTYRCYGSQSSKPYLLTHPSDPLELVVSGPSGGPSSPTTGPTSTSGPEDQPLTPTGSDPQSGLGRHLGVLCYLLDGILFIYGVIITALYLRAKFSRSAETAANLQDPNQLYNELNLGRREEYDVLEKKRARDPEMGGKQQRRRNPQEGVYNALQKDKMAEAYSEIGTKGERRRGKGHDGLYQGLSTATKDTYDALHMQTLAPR
T2 sequence (Q8N6C8 24-439 limits assumed): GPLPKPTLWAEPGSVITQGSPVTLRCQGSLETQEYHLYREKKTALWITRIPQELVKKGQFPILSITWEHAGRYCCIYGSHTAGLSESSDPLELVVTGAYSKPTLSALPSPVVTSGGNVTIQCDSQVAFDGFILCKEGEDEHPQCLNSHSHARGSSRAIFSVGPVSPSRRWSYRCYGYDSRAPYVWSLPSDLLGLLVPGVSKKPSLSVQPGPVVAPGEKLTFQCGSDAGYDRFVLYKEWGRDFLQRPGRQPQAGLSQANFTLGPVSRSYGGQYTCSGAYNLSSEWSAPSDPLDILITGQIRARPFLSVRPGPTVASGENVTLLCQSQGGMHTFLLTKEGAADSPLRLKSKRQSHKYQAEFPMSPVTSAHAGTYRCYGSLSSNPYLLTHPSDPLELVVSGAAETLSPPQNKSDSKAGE

Molecule: Negative
ELISA (OD) [1]: 0.05 OD | ELISA (OD) [2]: 0.071 OD | ELISA (OD) [3]: 0.13 OD | ELISA (OD) [4]: 0.0575 OD

Molecule: GHI/75 commercial mouse anti-human ILT2 antibody (BioLegend, Cat. No. 333704)
ELISA (OD) [5]: 2.45 OD

B1: chimeric 15G8 (antibody, V domains shown)
VH: DVQLQGSGPGLVKPSQSLSLTCSVTGYSITSGYYWNWIRQFPGNKLEWMGYISYDGSNNYNPSLKNRISITRDTSKNQFFLKLNSVTSEDTATYYCAHGYSYYYAMDCWGQGTSVTVSS
VL: DIQMTQTTSSLSASLGDRVTISCRTSQDISNYLNWYQQKPDGTVKLLISYTSRLHSGVPSRFSGSGSGTDYSLTISNLEQEDIATYFCQQGNTLPTFGSGTKLEIK
notes: Constant regions not described; also called chimeric murine 15G8
IC50 (read off the curve) [6]: ~0.2 µg/mL | EC50 (read off the curve) [7]: ~0.5 µg/mL

More lines, now with the values ahead:

IC50 (read off the curve) [8]: ~0.3 µg/mL | IC50 (read off the curve) [6]: ~0.2 µg/mL | EC50 (read off the curve) [7]: ~0.5 µg/mL
B2: humanized 15G8 (alanine variant) (antibody, V domains shown)
VH: B1 VH with Q16E, S17T, N44K, S69T, T71S, F80S, S88A, E89A, C108A
VL: DIQMTQSPSSLSASVGDRVTITCRTSQDISNYLNWYQQKPGKAVKLLISYTSRLHSGVPSRFSGSGSGTDYTLTISSLQPEDFATYYCQQGNTLPTFGQGTKLEIK
notes: also called 15G8 humanized antibody; humanized antibody 15G8

binding result [9]: no binding | binding result [10]: no binding | binding result [11]: no binding | IC50 (read off the curve) [12]: ~3 µg/mL
B3: 15G8 (original hybridoma-derived murine anti-ILT2 antibody) (antibody, V domains shown)
VH: B1 VH
VL: B1 VL
notes: also called 15G8 antibody
